Results taken from patent US20180362643A1 (Amgen, published 2018).
Each block holds one binder with its values, some of them ahead of it. Ends that are not written are not given here.

What was measured:
[1] = target: T1, PACAP38 peptide fragment 27-38 (human, ends and bridges not checked); assay: SPR (Biacore 3000), solution competition with the peptide for antibody binding to immobilised full-length PACAP38; % inhibition
T1 construct: also called peptide No. 6
T1 peptide: LGKRYKQRVKNK

human PACAP27 = target: T2, human PACAP27 (human, not fully specified); assay: cell-based or functional assay
T2 peptide: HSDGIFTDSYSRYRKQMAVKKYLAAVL

[2] = target: T3, PACAP38 peptide fragment 6-35 (human); assay: SPR (Biacore 3000) solution competition: antibody pre-incubated 1:200 with the fragment, then injected over immobilised PACAP38
T3 construct: also called peptide No. 4
T3 peptide: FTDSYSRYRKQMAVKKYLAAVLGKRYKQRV
Procedure: (§1) In this experiment, various peptide fragments of PACAP38 were incubated with each of the six antibodies (mAb1, mAb2, mAb3, mAb4, mAb5, and mAb6) described in Example 2 and evaluated for their ability to inhibit binding of the antibodies to full-length PACAP38 immobilized on the sensor-chip. The binding epitopes for each of the antibodies were deduced from the set of peptides that were able to inhibit the binding of each antibody to full-length PACAP38.
(§2) Each of the six anti-PACAP antibodies was incubated at a 1:200 molar ratio (Ab: peptide fragment) with each of the peptide fragments in Table 9 at an ambient temperature for 2 hours prior to analysis. […] A second control containing 6.5 nM antibody was prepared in sample diluent to be used as the untreated control sample for each antibody. Full-length PACAP38, buffer, and each peptide fragment were also tested to evaluate non-specific binding to the immobilized PACAP38 surface.

[3] = target: T4, PACAP38 peptide fragment 11-27 (human); assay: as above
T4 construct: also called peptide No. 8
T4 peptide: SRYRKQMAVKKYLAAVL
Procedure: as §1, §2

[4] = target: T5, PACAP38 peptide fragment 4-27 (human); assay: as above
T5 construct: also called peptide No. 9
T5 peptide: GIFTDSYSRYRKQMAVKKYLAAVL
Procedure: as §1, §2

[5] = target: T6, PACAP38 peptide fragment 14-38 (human, not fully specified); assay: as above
T6 construct: also called peptide No. 7
T6 peptide: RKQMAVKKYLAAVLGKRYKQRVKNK
Procedure: as §1, §2

[6] = target: T7, PACAP38 peptide fragment 34-38 (human, ends and bridges not checked); assay: as above
T7 construct: also called peptide No. 17; RVKNK
T7 peptide: RVKNK
Procedure: as §1, §2

[7] = target: T8, full-length human PACAP38 (human, not fully specified); assay: cell-based or functional assay
T8 peptide: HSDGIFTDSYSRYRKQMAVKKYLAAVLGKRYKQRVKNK

B1: mAb6 (antibody, V domains shown)
VH: QLEESGGGLVQPGASLTLTCTTSGFSLSDNYLCWVRQAPGRGLEWVACIGIVLRSTGATYYASWAEGRFTISKTSPTTVTLEMTSLTAADTATYFCALDLGYGGPLWGPGTLVTVSS
VL: AQVLTQTPASVSAAVGGTVTINCQASQSVYNNKNLAWYQQKPGQPPKLLIYFSSTLASGVPSRFRGSGSGTQFTLTISGVQCGDAATYYCLGEFGSIWAFGGGTEVVVKG
notes: Rabbit monoclonal antibody (SLAM), recombinant; also called monoclonal anti-PACAP antibody 6; 6 (c55)
binding result [1]: no binding (tested: 1:200 molar ratio (Ab:peptide))

IC50: inhibition of PACAP27 (10 pM)-induced activation of human PAC1 receptor, cAMP assay in SH-SY5Y (CRL-2266) cells, POC versus antibody concentration (human PACAP27): 41 nM
binding result [2]: binds
binding result [3]: binds
binding result [4]: binds
binding result [5]: binds
B2: mAb5 (antibody, V domains shown)
VH: QSVEESGGRLVTPGTPLTLTCTVSGFSLSTYNMCWVRQAPGKGLEWVGFINSDDSAYYASWAKGRFTFSKTSTTVDLKIASPTTEDTATYFCARYDWDYYYSRLDLWGPGTLVTVSS
VL: DIVLTQTPASVSAAVGGTVSISCQSSESVYNNNYLSWFQQKPGQPPKLLIYGASTLASGVPSRFEGSGSGTQFTLTISDVQCDDAATYYCLGDYIIIENIFGGGTEVVVKG
notes: Rabbit monoclonal antibody (SLAM), recombinant; also called monoclonal anti-PACAP antibody 5; 5 (c71)

binding result [6]: binds
IC50, inhibition of PACAP38-induced activation of the PAC1 receptor (cAMP assay, CRL-2266 cells) [7]: < 1 nM
potency relative to PAC1 Ab, inhibition of PACAP38-induced PAC1 receptor activation (cAMP assay) [7]: ~10 fold
B3: mAb2 (antibody, V domains shown)
VH: QSLEESGGGLVQPEGSLTLTCTASGFSFNSSSYMCWVRQAPGKGLEWIGCIFTGSSGNTYYATWAQGRFTISKTSTTVTLEMTSLTAADTATYFCARDRAYFLVGYFYATYYFDLWGPGTLVTVSS
VL: DVVMTQTPSPVSAQVGGTVTINCQASESIDSDLSWYQQKPGQPPKLLIYRTFTLESGVPSRFKGSGSGTDYTLTISDLECADAAIYYCQCTDGSSISGSYGWDAFGGGTEVVVKG
notes: Rabbit monoclonal antibody (SLAM), recombinant; also called monoclonal anti-PACAP antibody 2; 2 (c81)
